Results from patent US20170306033A1 (Amgen, published 2017).
Substitutions are numbered along the chain they refer to.

T1: human PAC1 receptor (human, UniProt P41586 21-468)
T1 sequence: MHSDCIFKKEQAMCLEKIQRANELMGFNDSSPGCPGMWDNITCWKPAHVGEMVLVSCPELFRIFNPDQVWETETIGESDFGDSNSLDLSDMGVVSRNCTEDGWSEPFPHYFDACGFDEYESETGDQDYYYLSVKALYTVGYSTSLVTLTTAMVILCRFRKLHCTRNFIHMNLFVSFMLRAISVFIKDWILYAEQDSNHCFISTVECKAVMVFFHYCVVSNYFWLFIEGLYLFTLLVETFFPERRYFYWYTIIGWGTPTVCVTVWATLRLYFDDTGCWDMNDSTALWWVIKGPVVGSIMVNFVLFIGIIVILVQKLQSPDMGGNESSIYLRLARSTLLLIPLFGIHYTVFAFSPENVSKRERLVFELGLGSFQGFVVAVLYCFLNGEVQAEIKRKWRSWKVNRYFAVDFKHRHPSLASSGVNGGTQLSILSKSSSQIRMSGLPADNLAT

B1: iPS:327699 (bispecific antibody, human IgG1, kappa, lambda, N297G)
light 1: not shown
heavy 1: not shown
light 2: QSVLTQPPSVSAAPGQKVTISCSGSSSNIGNNYVSWYQQLPGTAPKLLIYDNNKRPSGIPDRFSGSKSGTSTTLGITGLQTGDEADYYCGTWDSRLSAVVFGGGTKLTVLGQPKANPTVTLFPPSSEELQANKATLVCLISDFYPGAVTVAWKADGSPVKAGVETTKPSKQSNNKYAAKSYLSLTPEQWKSHRSYSCQVTHEGSTVEKTVAPTECS
heavy 2: QVQLVESGGGVVQPGRSLRLSCAASGFTFSSFGMHWVRQAPGKGLEWVAVISFDGSIKYSVDSVKGRFTISRDNSKNTLFLQMNSLRAEDTAVYYCARDRLNYYESSGYYHYKYYGMAVWGQGTTVTVSSASTKGPSVFPLAPSSKSTSGGTAALGCLVKDYFPEPVTVSWNSGALTSGVHTFPAVLQSSGLYSLESVVTVPSSSLGTQTYICNVNHKPSNTKVDKKVEPKSCDKTHTCPPCPAPELLGGPSVFLFPPKPKDTLMISRTPEVTCVVVDVSHEDPEVKFNWYVDGVEVHNAKTKPCEEQYGSTYRCVSVLTVLHQDWLNGKEYKCKVSNKALPAPIEKTISKAKGQPREPQVYTLPPSRKKMTKNQVSLTCLVKGFYPSDIAVEWESNGQPENNYKTTPPVLKSDGSFFLYSKLTVDKSRWQQGNVFSCSVMHEALHNHYTQKSLSLSPGK
B2: iPS:327704 (bispecific antibody, human IgG1, kappa, lambda, N297G)
light 1: not shown
heavy 1: not shown
light 2: B1 light 2 with T72A
heavy 2: B1 heavy 2 with E105D, K370E
B3: iPS:327703 (bispecific antibody, human IgG1, kappa, lambda, N297G)
light 1: not shown
heavy 1: not shown
light 2: B1 light 2 with T72A
heavy 2: B1 heavy 2 with E105D, K370E
B4: iPS:327714 (bispecific antibody, human IgG1, kappa, lambda, N297G)
light 1: EIVLTQSPATLSLSPGERATLSCRASQSVGRSLHWYQQKPGQAPRLLIKYASQSLSGIPARFSGSGSGTDFTLTISSLEPEDFAVYYCHQSSRLPFTFGPGTKVDIKRTVAAPSVFIFPPSDEQLKSGTASVVCLLNNFYPREAKVQWKVDNALQSGNSQESVTEQDSKDSTYSLESTLTLSKADYEKHKVYACEVTHQGLSSPVTKSFNRGEC
heavy 1: not shown
light 2: B1 light 2 with T72A
heavy 2: B1 heavy 2 with E105D
B5: iPS:327717 (bispecific antibody, human IgG1, kappa, lambda, N297G)
light 1: not shown
heavy 1: not shown
light 2: B1 light 2 with T72A, G75A
heavy 2: B1 heavy 2 with E105D, K370E
B6: iPS:327712 (bispecific antibody, human IgG1, kappa, lambda, N297G)
light 1: not shown
heavy 1: not shown
light 2: B1 light 2 with T72A
heavy 2: B1 heavy 2 with E105D
B7: iPS:327713 (bispecific antibody, human IgG1, kappa, lambda, N297G)
light 1: DIQLTQSPSFLSASVGDRVTITCRASQSIGRSLHWYQQKPGKAPKLLIKYASQSLSGVPSRFSGSGSGTEFTLTISSLQPEDFATYYCHQSSRLPFTFGPGTKVDIKRTVAAPSVFIFPPSDEQLKSGTASVVCLLNNFYPREAKVQWKVDNALQSGNSQESVTEQDSKDSTYSLESTLTLSKADYEKHKVYACEVTHQGLSSPVTKSFNRGEC
heavy 1: not shown
light 2: B1 light 2 with T72A
heavy 2: B1 heavy 2 with E105D
B8: iPS:327700 (bispecific antibody, human IgG1, kappa, lambda, N297G)
light 1: not shown
heavy 1: not shown
light 2: B1 light 2
heavy 2: B1 heavy 2
B9: iPS:327710 (bispecific antibody, human IgG1, kappa, lambda, N297G)
light 1: B4 light 1 with P100E
heavy 1: not shown
light 2: B1 light 2 with T72A, G103K
heavy 2: B1 heavy 2 with G44E, E105D, K370E
B10: iPS:327711 (bispecific antibody, human IgG1, kappa, lambda, N297G)
light 1: not shown
heavy 1: not shown
light 2: B1 light 2 with T72A
heavy 2: B1 heavy 2 with E105D
B11: iPS:327709 (bispecific antibody, human IgG1, kappa, lambda, N297G)
light 1: B7 light 1 with P100E
heavy 1: not shown
light 2: B1 light 2 with T72A, G103K
heavy 2: B1 heavy 2 with G44E, E105D, K370E
B12: iPS:327701 (bispecific antibody, human IgG1, kappa, lambda, N297G)
light 1: B7 light 1
heavy 1: not shown
light 2: B1 light 2
heavy 2: B1 heavy 2
B13: iPS:327729 (bispecific antibody, human IgG1, kappa, lambda, N297G)
light 1: B7 light 1
heavy 1: not shown
light 2: B1 light 2 with T72A, G75A
heavy 2: B1 heavy 2 with E105D
B14: iPS:327702 (bispecific antibody, human IgG1, kappa, lambda, N297G)
light 1: B4 light 1
heavy 1: not shown
light 2: B1 light 2
heavy 2: B1 heavy 2
B15: iPS:326661 (bispecific antibody, human IgG2, kappa)
light 1: not shown
heavy 1: QVQLQQSGPGLVKPSQTLSLTCAISGDSVSSNSATWNWIRQSPSRGLEWLGRTYYRSKWSNHYAVSVKSRITINPDTSKSQFSLQLNSVTPEDTAVYYCARGTWKQLWFLDHWGQGTLVTVSSASTKGPSVFPLAPCSRSTSESTAALGCLVKDYFPEPVTVSWNSGALTSGVHTFPAVLQSSGLYSLKSVVTVPSSNFGTQTYTCNVDHKPSNTKVDKTVERKCCVECPPCPAPPVAGPSVFLFPPKPKDTLMISRTPEVTCVVVDVSHEDPEVQFNWYVDGVEVHNAKTKPREEQFNSTFRVVSVLTVVHQDWLNGKEYKCKVSNKGLPAPIEKTISKTKGQPREPQVYTLPPSREEMTKNQVSLTCLVDGFYPSDIAVEWESNGQPENNYDTTPPMLDSDGSFFLYSDLTVDKSRWQQGNVFSCSVMHEALHNHYTQKSLSLSPGK
light 2: EIVLTQSPGTLSLSPGERATLSCRASQSVSSGYLTWYQQKPGQAPRLLIYGASSRATGIPDRFSGSGSGTDFTLTISRLEPEDFAVYYCQQYGNSLSRFGQGTKLEIKRTVAAPSVFIFPPSDEQLKSGTASVVCLLNNFYPREAKVQWKVDNALQSGNSQESVTEQDSKDSTYSLKSTLTLSKADYEKHKVYACEVTHQGLSSPVTKSFNRGEC
heavy 2: QVQLVESGGGVVQPGRSLRLSCAASGFTFSSYGMHWVRQAPGKGLEWVAVIWYDGSNKYYADSVKGRFIISRDKSKNTLYLQMNSLRAEDTAVYYCARAGGIAAAGLYYYYGMDVWGQGTTVTVSSASTKGPSVFPLAPCSRSTSESTAALGCLVKDYFPEPVTVSWNSGALTSGVHTFPAVLQSSGLYSLESVVTVPSSNFGTQTYTCNVDHKPSNTKVDKTVERKCCVECPPCPAPPVAGPSVFLFPPKPKDTLMISRTPEVTCVVVDVSHEDPEVQFNWYVDGVEVHNAKTKPREEQFNSTFRVVSVLTVVHQDWLNGKEYKCKVSNKGLPAPIEKTISKTKGQPREPQVYTLPPSRKKMTKNQVSLTCLVKGFYPSDIAVEWESNGQPENNYKTTPPMLKSDGSFFLYSKLTVDKSRWQQGNVFSCSVMHEALHNHYTQKSLSLSPGK

molecular target: human CGRP receptor (human, UniProt Q16602 23-461; O60894 27-148); test: cell-based or functional assay
Sequence (Q16602 23-461 limits assumed, chain 1 of 2): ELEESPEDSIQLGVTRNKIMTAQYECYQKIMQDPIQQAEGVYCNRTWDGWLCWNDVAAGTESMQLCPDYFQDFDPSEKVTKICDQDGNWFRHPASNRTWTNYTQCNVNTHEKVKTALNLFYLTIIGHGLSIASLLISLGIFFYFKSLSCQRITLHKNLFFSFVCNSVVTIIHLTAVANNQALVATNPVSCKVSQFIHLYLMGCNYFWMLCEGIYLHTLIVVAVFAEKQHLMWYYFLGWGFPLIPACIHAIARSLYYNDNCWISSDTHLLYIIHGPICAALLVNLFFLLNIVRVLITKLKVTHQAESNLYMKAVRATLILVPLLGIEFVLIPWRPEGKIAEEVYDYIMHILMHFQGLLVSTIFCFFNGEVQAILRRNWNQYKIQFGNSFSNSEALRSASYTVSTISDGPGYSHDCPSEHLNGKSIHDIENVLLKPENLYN
Sequence (O60894 27-148 limits assumed, chain 2 of 2): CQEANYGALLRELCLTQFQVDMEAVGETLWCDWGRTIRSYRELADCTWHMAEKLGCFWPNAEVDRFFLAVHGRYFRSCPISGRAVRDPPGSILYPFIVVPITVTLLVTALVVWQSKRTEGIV

% inhibition of human CGRPR [%]	Binder
72	B1
82	B2
83	B3
94	B4
92	B5
89	B6
89	B7
77	B8
82	B9
87	B10
82	B11
73	B12
84	B13
79	B14
77	B15

molecular target: T1, human PAC1 receptor; test: cell-based or functional assay

% inhibition of human PAC1 [%]	Binder
92	B1
71	B2
87	B3
104	B4
94	B5
81	B6
85	B7
72	B8
61	B9
97	B10
29	B11
41	B12
85	B13
86	B14
72	B15
